Assay results: the supplement of paper PMC10724198
± gives the standard deviation of the averaged measurements.

tested on: Saccharomyces cerevisiae; experiment: protein stability index of tFT-peptide fusion (C-terminal peptide) (PSI (0-1 scale)); higher = more stable (slower turnover); details: genetic background: das1 deletion; temperature: 30 C
Method: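 MPS profiling in S. cerevisiae of the tFT-X12 degron library: putative degron peptides plus stable controls, 12 aa, fused to the C-terminus of a sfGFP-mCherry timer. Cells are FACS-sorted into 8 mCherry/sfGFP bins and deep-sequenced. PSI runs from 0 (unstable) to 1 (stable). Backgrounds are wild type, das1Δ and doa10Δ at 30 °C, and wild type, das1Δ, cdc34-1 and cdc53-1 at 37 °C; 2-3 technical replicates each.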
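Also: PSI is a weighted mean of sequencing reads over stability bins, variants kept only with over 10 reads, mCherry proximal and sfGFP distal, peptide attached via GGGS linker.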

Row | Sequence | protein stability index
1 | HINRTIWARYQV | 0.643 ± 0.033
2 | HLGNTMIKKLIG | 0.621 ± 0.012
3 | HLYPFPSLHFAF | 0.681 ± 0.013
4 | HNQDKNVKYKIG | 0.625 ± 0.032
5 | HRDVISVVRNMS | 0.659 ± 0.058
6 | HRHCVSSYQKVS | 0.648 ± 0.028
7 | HRNILSIIIKNL | 0.642 ± 0.057
8 | ICTHPCLRLRLN | 0.634 ± 0.012
9 | IDLISRVTVVAR | 0.268 ± 0.036
10 | IDLVAFCTIFAL | 0.363 ± 0.03
11 | IERGLMLTLCVH | 0.172 ± 0.027
12 | IERLRLRTRIIC | 0.423 ± 0.021
13 | IFIVLDFRCVSS | 0.256 ± 0.016
14 | IFLLFPFSWRIF | 0.56 ± 0.039
15 | IFLLLRRIIALS | 0.411 ± 0.047
16 | IFPSRSLLAASA | 0.339 ± 0.033
17 | IFSFRWVLPFWL | 0.6 ± 0.026
18 | IHCLSIVVHGLS | 0.471 ± 0.024
19 | IHIFIIFRVQWK | 0.179 ± 0.025
20 | IHRSPLTLPLLV | 0.461 ± 0.031
21 | IIFCVRVVGGDL | 0.371 ± 0.029
22 | IIIRVTILCEQF | 0.146 ± 0.02
23 | IILAIRLLVDTL | 0.146 ± 0.025
24 | IILRPQYVHYFL | 0.497 ± 0.025
25 | IIVLNIGSVIFC | 0.397 ± 0.018
26 | IKSLLGCWHKHY | 0.647 ± 0.031

Row | Sequence | protein stability index
27 | ILCVEFFVSVSV | 0.163 ± 0.025
28 | ILFVCVCVLHVG | 0.17 ± 0.027
29 | INKRDARIHLLM | 0.623 ± 0.023
30 | IPHLNCCCCLVR | 0.334 ± 0.035
31 | IRDGPWKRVLVV | 0.48 ± 0.028
32 | IRVLACFLFAVS | 0.172 ± 0.0094
33 | IVFGWGVEWGRL | 0.692 ± 0.014
34 | IVLCVFTVDSDF | 0.314 ± 0.024
35 | IVSFRLDLSLAV | 0.452 ± 0.023
36 | IVWVSSFVCRSV | 0.436 ± 0.0072
37 | IWVVIISDSRVG | 0.283 ± 0.059
38 | IWVWMLSVWLGG | 0.291 ± 0.021
39 | IYFFVLRLRLCG | 0.235 ± 0.029
40 | KIHILVVQIATR | 0.0541 ± 0.0098
41 | KKNITRLKNKMT | 0.678 ± 0.031
42 | KLLISLTWFCVL | 0.373 ± 0.029
43 | KLRMGRYIVRII | 0.569 ± 0.022
44 | KVFWRPAWVAEV | 0.631 ± 0.016
45 | LAVFSSPELSFP | 0.6631 ± 0.0019
46 | LCFTSVFTLFIC | 0.382 ± 0.026
47 | LCLLPVCLWDVG | 0.447 ± 0.0076
48 | LCSCAVVICCSL | 0.299 ± 0.031
49 | LCSVWVGIVLLC | 0.23 ± 0.02
50 | LDLSSLRCRYLL | 0.657 ± 0.021
51 | LDTTSRSRAKIS | 0.625 ± 0.022
52 | LFFGLCFVFFGF | 0.362 ± 0.032

Row | Sequence | protein stability index
53 | LFFLSASFFFFF | 0.449 ± 0.034
54 | LFFSPRRLSPPT | 0.695 ± 0.03
55 | LFIVTFIPVLFS | 0.374 ± 0.016
56 | LFMLHFLAVLRY | 0.272 ± 0.037
57 | LFSFVCLVFFLW | 0.291 ± 0.03
58 | LFSPLKGILSVM | 0.51 ± 0.032
59 | LFTTYVFLVFFQ | 0.337 ± 0.027
60 | LFVFTYPFLSWL | 0.591 ± 0.042
61 | LFVMVSVSGLVV | 0.159 ± 0.031
62 | LFVVHCFLSVSS | 0.0648 ± 0.021
63 | LFWFRGTIVTPR | 0.638 ± 0.015
64 | LGCFGSSFVFCC | 0.553 ± 0.029
65 | LGRVSAKFFCVL | 0.646 ± 0.014
66 | LGVCLFFVRCWS | 0.189 ± 0.033
67 | LIFRLCVCGVFW | 0.468 ± 0.044
68 | LILRVLFLFEPC | 0.389 ± 0.026
69 | LIRLCVAPMVCR | 0.349 ± 0.023
70 | LKKTLNGRRKMI | 0.638 ± 0.048
71 | LLASFWKFIVNI | 0.641 ± 0.058
72 | LLAWLHTVQRVG | 0.659 ± 0.02
73 | LLFLVCFFPSIS | 0.311 ± 0.045
74 | LLFYSYFFFVLY | 0.248 ± 0.021
75 | LLGGRVLWAWRV | 0.626 ± 0.016
76 | LLLLFPSPLFIR | 0.235 ± 0.012
77 | LLLRQVFSLGVF | 0.558 ± 0.011
78 | LLLVSLAVPLSL | 0.465 ± 0.017

same assay, conditions: genetic background: das1 deletion; temperature: 37 C

Row | Sequence | protein stability index
79 | HINRTIWARYQV | 0.75 ± 0.021
80 | HLGNTMIKKLIG | 0.728 ± 0.035
81 | HLYPFPSLHFAF | 0.778 ± 0.026
82 | HNQDKNVKYKIG | 0.705 ± 0.021
83 | HRDVISVVRNMS | 0.715 ± 0.019
84 | HRHCVSSYQKVS | 0.715 ± 0.0042
85 | HRNILSIIIKNL | 0.685 ± 0.029
86 | ICTHPCLRLRLN | 0.732 ± 0.019
87 | IDLISRVTVVAR | 0.464 ± 0.0081
88 | IDLVAFCTIFAL | 0.516 ± 0.01
89 | IERGLMLTLCVH | 0.205 ± 0.0033
90 | IERLRLRTRIIC | 0.542 ± 0.0096
91 | IFIVLDFRCVSS | 0.4371 ± 0.0012
92 | IFLLFPFSWRIF | 0.694 ± 0.011
93 | IFLLLRRIIALS | 0.554 ± 0.023
94 | IFPSRSLLAASA | 0.5192 ± 0.0019
95 | IFSFRWVLPFWL | 0.70093 ± 0.00061
96 | IHCLSIVVHGLS | 0.588 ± 0.0099
97 | IHIFIIFRVQWK | 0.272 ± 0.018
98 | IHRSPLTLPLLV | 0.5726 ± 0.005
99 | IIFCVRVVGGDL | 0.5566 ± 0.00057
100 | IIIRVTILCEQF | 0.258 ± 0.018
101 | IILAIRLLVDTL | 0.266 ± 0.011
102 | IILRPQYVHYFL | 0.5597 ± 0.00026
103 | IIVLNIGSVIFC | 0.5716 ± 0.0053
104 | IKSLLGCWHKHY | 0.7145 ± 0.0066

Row | Sequence | protein stability index
105 | ILCVEFFVSVSV | 0.277 ± 0.0064
106 | ILFVCVCVLHVG | 0.307 ± 0.0048
107 | INKRDARIHLLM | 0.701 ± 0.00084
108 | IPHLNCCCCLVR | 0.5878 ± 0.0048
109 | IRDGPWKRVLVV | 0.642 ± 0.0055
110 | IRVLACFLFAVS | 0.32 ± 0.0072
111 | IVFGWGVEWGRL | 0.7973 ± 0.0035
112 | IVLCVFTVDSDF | 0.5441 ± 0.0044
113 | IVSFRLDLSLAV | 0.55891 ± 0.00017
114 | IVWVSSFVCRSV | 0.524 ± 0.0075
115 | IWVVIISDSRVG | 0.488 ± 0.02
116 | IWVWMLSVWLGG | 0.409 ± 0.022
117 | IYFFVLRLRLCG | 0.428 ± 0.0065
118 | KIHILVVQIATR | 0.1391 ± 0.00019
119 | KKNITRLKNKMT | 0.691 ± 0.059
120 | KLLISLTWFCVL | 0.527 ± 0.019
121 | KLRMGRYIVRII | 0.6655 ± 0.0023
122 | KVFWRPAWVAEV | 0.733 ± 0.0084
123 | LAVFSSPELSFP | 0.761 ± 0.013
124 | LCFTSVFTLFIC | 0.511 ± 0.006
125 | LCLLPVCLWDVG | 0.501 ± 0.0082
126 | LCSCAVVICCSL | 0.4631 ± 0.0044
127 | LCSVWVGIVLLC | 0.313 ± 0.014
128 | LDLSSLRCRYLL | 0.765 ± 0.021
129 | LDTTSRSRAKIS | 0.718 ± 0.013
130 | LFFGLCFVFFGF | 0.48 ± 0.0058

Row | Sequence | protein stability index
131 | LFFLSASFFFFF | 0.547 ± 0.0075
132 | LFFSPRRLSPPT | 0.778 ± 0.022
133 | LFIVTFIPVLFS | 0.623 ± 0.0088
134 | LFMLHFLAVLRY | 0.3358 ± 0.003
135 | LFSFVCLVFFLW | 0.441 ± 0.0094
136 | LFSPLKGILSVM | 0.691 ± 0.0074
137 | LFTTYVFLVFFQ | 0.511 ± 0.0082
138 | LFVFTYPFLSWL | 0.6963 ± 0.0031
139 | LFVMVSVSGLVV | 0.255 ± 0.0059
140 | LFVVHCFLSVSS | 0.165 ± 0.0062
141 | LFWFRGTIVTPR | 0.7371 ± 0.0069
142 | LGCFGSSFVFCC | 0.685 ± 0.015
143 | LGRVSAKFFCVL | 0.7237 ± 0.0027
144 | LGVCLFFVRCWS | 0.324 ± 0.019
145 | LIFRLCVCGVFW | 0.5218 ± 0.0011
146 | LILRVLFLFEPC | 0.511 ± 0.0049
147 | LIRLCVAPMVCR | 0.5145 ± 0.0016
148 | LKKTLNGRRKMI | 0.736 ± 0.015
149 | LLASFWKFIVNI | 0.7 ± 0.073
150 | LLAWLHTVQRVG | 0.7844 ± 0.0033
151 | LLFLVCFFPSIS | 0.549 ± 0.033
152 | LLFYSYFFFVLY | 0.341 ± 0.015
153 | LLGGRVLWAWRV | 0.737 ± 0.019
154 | LLLLFPSPLFIR | 0.303 ± 0.022
155 | LLLRQVFSLGVF | 0.6741 ± 0.0063
156 | LLLVSLAVPLSL | 0.559 ± 0.021
